Results taken from patent US20240327517A1 (SUZHOU SMARTNUCLIDE BIOPHARMACEUTICAL, published 2024).

B1: C37-ST-YS (VHH)
VHH: QLQLVESGGGLVQAGGSLRLSCAASGLTFEDYAIGWFRQAPGKEREGISCIRIYDGNTYYAESVKGRFTISSDNAKNQVYLQINSLKPEDTAVYYCAAGSYYSCSVYPDYDMDYWGKGTLVTVSS
notes: Mutant of section 1.1 (Protein A test); No tag is mentioned for this section
B2: C37-YDS (VHH)
VHH: QLQLVESGGGLVQAGGSLRLSCAASGLTFEDYAIGWFRQAPGKEREGISCIRIYDGNTYYADSVKGRFTISSDNAKNQVYLQINSLKPEDTAVYYCAAGSYYSCSVYPDYDMDYWGKGTLVTVSS
notes: as for B1
B3: C37-YMS (VHH)
VHH: QLQLVESGGGLVQAGGSLRLSCAASGLTFEDYAIGWFRQAPGKEREGISCIRIYDGNTYYAESVKGRFTISSDNAKNQVYLQMNSLKPEDTAVYYCAAGSYYSCSVYPDYDMDYWGKGTLVTVSS
notes: as for B1
B4: C37-YDMS (VHH)
VHH: QLQLVESGGGLVQAGGSLRLSCAASGLTFEDYAIGWFRQAPGKEREGISCIRIYDGNTYYADSVKGRFTISSDNAKNQVYLQMNSLKPEDTAVYYCAAGSYYSCSVYPDYDMDYWGKGTLVTVSS
notes: as for B1
B5: C37-S60Y (VHH)
VHH: QLQLVESGGGLVQAGGSLRLSCAASGLTFEDYAIGWFRQAPGKEREGISCIRIYDGNTYYAESVKGRFTISSDNAKNQVYLQINTLKPEDTAVYYCAAGSYYSCSVYPDYDMDYWGKGTLVTVSS
notes: as for B1
B6: C37 single-domain antibody (untagged) (VHH)
VHH: QLQLVESGGGLVQAGGSLRLSCAASGLTFEDYAIGWFRQAPGKEREGISCIRIYDGNTYSAESVKGRFTISSDNAKNQVYLQINTLKPEDTAVYYCAAGSYYSCSVYPDYDMDYWGKGTLVTVSS
notes: The untagged construct was expressed in HEK293 and used in the Protein A test; also called C37 antibody
B7: C37-S72R (histidine-tagged) (VHH)
VHH: QLQLVESGGGLVQAGGSLRLSCAASGLTFEDYAIGWFRQAPGKEREGISCIRIYDGNTYSAESVKGRFTISRDNAKNQVYLQINTLKPEDTAVYYCAAGSYYSCSVYPDYDMDYWGKGTLVTVSS
notes: not shown: histidine tag
B8: C37-D31Y (histidine-tagged) (VHH)
VHH: QLQLVESGGGLVQAGGSLRLSCAASGLTFEYYAIGWFRQAPGKEREGISCIRIYDGNTYSAESVKGRFTISSDNAKNQVYLQINTLKPEDTAVYYCAAGSYYSCSVYPDYDMDYWGKGTLVTVSS
notes: not shown: histidine tag
B9: C37-KL-QQ (histidine-tagged) (VHH)
VHH: QLQLVESGGGLVQAGGSLRLSCAASGLTFEDYAIGWFRQAPGKEREGISCIRIYDGNTYSAESVKGRFTISSDNAKNQVYLQINTLKPEDTAVYYCAAGSYYSCSVYPDYDMDYWGQGTQVTVSS
notes: not shown: histidine tag
B10: C37-RSA (histidine-tagged) (VHH)
VHH: QLQLVESGGGLVQAGGSLRLSCAASGLTFEDYAIGWFRQAPGKEREGISCIRIYDGNTYSAESVKGRFTISRDNAKNQVYLQINSLKPEDTAVYYCAAGSYYSCSVYPAYDMDYWGKGTLVTVSS
notes: not shown: histidine tag
B11: C37-T85S (histidine-tagged, section 1.2) (VHH)
VHH: QLQLVESGGGLVQAGGSLRLSCAASGLTFEDYAIGWFRQAPGKEREGISCIRIYDGNTYSAESVKGRFTISSDNAKNQVYLQINSLKPEDTAVYYCAAGSYYSCSVYPDYDMDYWGKGTLVTVSS
notes: not shown: histidine tag
B12: C37-D109A (histidine-tagged) (VHH)
VHH: QLQLVESGGGLVQAGGSLRLSCAASGLTFEDYAIGWFRQAPGKEREGISCIRIYDGNTYSAESVKGRFTISSDNAKNQVYLQINTLKPEDTAVYYCAAGSYYSCSVYPAYDMDYWGKGTLVTVSS
notes: not shown: histidine tag
B13: C37-E30S (histidine-tagged) (VHH)
VHH: QLQLVESGGGLVQAGGSLRLSCAASGLTFSDYAIGWFRQAPGKEREGISCIRIYDGNTYSAESVKGRFTISSDNAKNQVYLQINTLKPEDTAVYYCAAGSYYSCSVYPDYDMDYWGKGTLVTVSS
notes: not shown: histidine tag
B14: C37-SR (histidine-tagged) (VHH)
VHH: QLQLVESGGGLVQAGGSLRLSCAASGLTFSDYAIGWFRQAPGKEREGISCIRIYDGNTYSAESVKGRFTISRDNAKNQVYLQINTLKPEDTAVYYCAAGSYYSCSVYPDYDMDYWGKGTLVTVSS
notes: not shown: histidine tag
B15: C37-RA (histidine-tagged) (VHH)
VHH: QLQLVESGGGLVQAGGSLRLSCAASGLTFEDYAIGWFRQAPGKEREGISCIRIYDGNTYSAESVKGRFTISRDNAKNQVYLQINTLKPEDTAVYYCAAGSYYSCSVYPAYDMDYWGKGTLVTVSS
notes: not shown: histidine tag
B16: C37-M112L (histidine-tagged) (VHH)
VHH: QLQLVESGGGLVQAGGSLRLSCAASGLTFEDYAIGWFRQAPGKEREGISCIRIYDGNTYSAESVKGRFTISSDNAKNQVYLQINTLKPEDTAVYYCAAGSYYSCSVYPDYDLDYWGKGTLVTVSS
notes: not shown: histidine tag
B17: C37-D111A (histidine-tagged) (VHH)
VHH: QLQLVESGGGLVQAGGSLRLSCAASGLTFEDYAIGWFRQAPGKEREGISCIRIYDGNTYSAESVKGRFTISSDNAKNQVYLQINTLKPEDTAVYYCAAGSYYSCSVYPDYAMDYWGKGTLVTVSS
notes: not shown: histidine tag
B18: C37-SA (histidine-tagged) (VHH)
VHH: QLQLVESGGGLVQAGGSLRLSCAASGLTFEDYAIGWFRQAPGKEREGISCIRIYDGNTYSAESVKGRFTISSDNAKNQVYLQINSLKPEDTAVYYCAAGSYYSCSVYPAYDMDYWGKGTLVTVSS
notes: not shown: histidine tag
B19: C37-TMS (histidine-tagged) (VHH)
VHH: QLQLVESGGGLVQAGGSLRLSCAASGLTFEDYAIGWFRQAPGKEREGISCIRIYDGNTYSAESVKGRFTISSDNAKNTVYLQMNSLKPEDTAVYYCAAGSYYSCSVYPDYDMDYWGKGTLVTVSS
notes: not shown: histidine tag
B20: C37-SRA (histidine-tagged) (VHH)
VHH: QLQLVESGGGLVQAGGSLRLSCAASGLTFSDYAIGWFRQAPGKEREGISCIRIYDGNTYSAESVKGRFTISRDNAKNQVYLQINTLKPEDTAVYYCAAGSYYSCSVYPAYDMDYWGKGTLVTVSS
notes: not shown: histidine tag
B21: C37-SRS (histidine-tagged) (VHH)
VHH: QLQLVESGGGLVQAGGSLRLSCAASGLTFSDYAIGWFRQAPGKEREGISCIRIYDGNTYSAESVKGRFTISRDNAKNQVYLQINSLKPEDTAVYYCAAGSYYSCSVYPDYDMDYWGKGTLVTVSS
notes: not shown: histidine tag
B22: C37H (humanized variant of C37-F1) (VHH)
VHH: QVQLVESGGGLVQPGGSLRLSCAASGLTFSDYAIGWFRQAPGKEREGISCIRIYDGNTYYADSVKGRFTISRDNSKNHVYLQMNSLRAEDTAVYYCAAGSYYSCSVYPAYDLDYWGKGTLVTVSS
B23: C37-H2 (humanized variant of C37-F1) (VHH)
VHH: QVQLVESGGGLVQPGGSLRLSCAASGLTFSDYAIGWFRQAPGKEREGISCIRIYDRNTYYADSVKGRFTISRDNSKNHVYLQMNSLRAEDTAVYYCAAGSYYSCSVYPAYDLDYWGQGTLVTVSS
B24: C37-H1 (humanized variant of C37-F1) (VHH)
VHH: QVQLVESGGGLVQPGGSLRLSCAASGLTFSDYAIGWFRQAPGKEREGISCIRIYDGRTYYADSVKGRFTISRDNSKNHVYLQMNSLRAEDTAVYYCAAGSYYSCSVYPAYDLDYWGQGTLVTVSS
B25: C37-H4 (humanized variant of C37-F1) (VHH)
VHH: QVQLVESGGGLVQPGGSLRLSCAASGLTFSDYAIGWFRQAPGKEREGISCIRIYDGNTYYADSVKGRFTISRDNSKNHVYLQMNSLKPEDTAVYYCAAGSYYSCSVYPAYDLDYWGKGTLVTVSS
B26: C37-H3 (humanized variant of C37-F1) (VHH)
VHH: QVQLVESGGGLVQPGGSLRLSCAASGLTFSDYAIGWFRQAPGKEREGISCIRIYDGNTYYADSVKGRFTISRDNAKNHVYLQMNSLRAEDTAVYYCAAGSYYSCSVYPAYDLDYWGKGTLVTVSS

What follows are binders tested against T1, PROTEIN A (packing of the PROTEIN A affinity chromatography) (UniProt P38507 37-327, limits assumed) (assay: binding to the Protein A affinity packing).

B1: no binding.
B2: no binding.
B3: no binding.
B4: no binding.
B5: no binding.

The binders below were run against T1, PROTEIN A (packing of the PROTEIN A …) (assay: Protein A affinity chromatography of HEK293-expressed protein, SDS-PAGE of fractions).
From the text: After preliminary screening and identification, C37-cHis was selected as a final antibody sequence (including a histidine tag) from candidate antibodies, and meanwhile, an untagged recombinant plasmid C37 was constructed. HEK293 cells were transfected with the single-domain antibody C37 fusion protein plasmid constructed by the above recombination for expression of an antibody. […] Therefore, it was necessary to optimize the sequence of the C37 antibody to allow purification of the C37 antibody by affinity chromatography.
The recombinant plasmid C37 and the mutated recombinant plasmid C37-YDHMS were subjected to antibody expression via the HEK293 cells, respectively, and purification was conducted by means of the packing of the PROTEIN A affinity chromatography, in order to verify the binding to the affinity packing after the mutations.

B6: no binding.

These binders were tested against T2, CD8α Fc fusion protein (UniProt P01732 22-182, limits assumed) (assay: ELISA, plate coated with CD8α Fc fusion protein, anti-His-HRP detection, 4-parameter fit; relative to C37).
T2 construct: Used as the coating antigen of the ELISAs; also called CD8α antigen; CD8α protein; not shown: Fc part
From the text: The expression level and binding activity of each mutant were separately detected. For the sake of detection, a histidine-tagged recombinant plasmid was used in this section for transient transfection, after which a recombinant protein was purified by affinity chromatography with a corresponding Ni+ resin gel, thereby obtaining a protein of interest for direct use in the detection of expression level and binding activity.
(§1) After washing, an anti-His horseradish peroxidase-labeled antibody was added to allow reaction for 1 hour at room temperature. After washing, a chromogenic solution was added, and an absorption value was read at a wavelength of 450 nm. The software SotfMaxPro v5.4 was used for data processing and diagraph analysis; four-parameter fitting was performed to obtain the binding curve of the mutated antibody to CD8α; and different mutants were compared in relative activity with the C37 antibody as a control, in order to reflect the affinity of the antibody to CD8α.

T2 sequence (P01732 22-182 limits assumed): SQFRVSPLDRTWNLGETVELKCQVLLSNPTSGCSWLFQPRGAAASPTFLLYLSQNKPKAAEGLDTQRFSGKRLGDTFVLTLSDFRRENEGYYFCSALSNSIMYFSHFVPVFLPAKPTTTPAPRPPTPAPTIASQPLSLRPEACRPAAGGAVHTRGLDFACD

Going from B7 to B8, the “Relative activity (%)” value falls from 115% to 48.4%.

Compared with B9, B10 is lower in “Relative activity (%)” value: 141% for the first, 103% for the second.

First: B11
Second: B12
The “Relative activity (%)” value of the first is lower: 162% for the first, 476% for the second.

First: B13
Second: B14
The “Relative activity (%)” value of the first is higher: 126% for the first, 42% for the second.

First: B15
Second: B16
The “Relative activity (%)” value of the first is lower: 108% for the first, 206% for the second.

First: B17
Second: B18
The “Relative activity (%)” value of the first is lower: 84.6% for the first, 257% for the second.

Compared with B19, B20 is lower in “Relative activity (%)” value: 107% for the first, 40% for the second.

With B21 the “Relative activity (%)” value was 33%.

What follows are binders tested against T2, CD8α Fc fusion protein (assay: affinity detection of humanized variants (method not restated; taken as the CD8α Fc ELISA of section 1.2); relative to C37-F1).
Description: as §1

First: B22
Second: B23
The “Relative activity (%)” value of the first is higher: 151% for the first, 122% for the second.

Going from B24 to B25, the “Relative activity (%)” value rises from 110% to 141%.

With B26 the “Relative activity (%)” value was 171%.
